Measurements published in paper PMC8533642 (Journal of medicinal chemistry, 2021).
Square brackets hold non-standard residues; d marks the D form. Peptide text beside a SMILES is read from it. d2Nal = N[C@H](Cc1ccc2ccccc2c1)C(=O)O

What was measured:
[1] = Solubility in solvents compatible with RP-HPLC
mMC3R = mMC3R (Mus musculus, UniProt P33033); settings: miniAGRP(87–120), β-galactosidase reporter gene assay; cited from earlier work
mMC4R = mMC4R (Mus musculus, UniProt P56450); settings: miniAGRP(87–120), β-galactosidase reporter gene assay; cited from earlier work
Chain of mMC4R (P56450 whole entry): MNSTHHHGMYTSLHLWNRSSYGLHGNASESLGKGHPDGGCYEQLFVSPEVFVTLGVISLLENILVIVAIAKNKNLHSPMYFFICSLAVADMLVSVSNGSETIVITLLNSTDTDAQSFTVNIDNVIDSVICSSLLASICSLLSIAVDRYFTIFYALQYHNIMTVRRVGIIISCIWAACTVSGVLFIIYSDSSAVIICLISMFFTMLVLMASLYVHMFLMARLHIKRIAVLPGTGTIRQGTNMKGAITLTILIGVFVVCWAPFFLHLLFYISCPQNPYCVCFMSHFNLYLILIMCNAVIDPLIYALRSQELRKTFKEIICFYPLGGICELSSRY

Chain of mMC3R (P33033 whole entry): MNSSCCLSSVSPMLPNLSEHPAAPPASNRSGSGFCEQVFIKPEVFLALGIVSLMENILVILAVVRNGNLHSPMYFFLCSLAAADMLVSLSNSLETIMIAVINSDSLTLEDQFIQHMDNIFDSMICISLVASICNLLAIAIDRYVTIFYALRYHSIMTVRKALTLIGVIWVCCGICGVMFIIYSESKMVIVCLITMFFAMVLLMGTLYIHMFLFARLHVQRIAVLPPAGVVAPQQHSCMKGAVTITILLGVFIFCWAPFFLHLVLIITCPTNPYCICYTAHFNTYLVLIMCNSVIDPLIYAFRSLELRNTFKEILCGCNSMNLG

With `CC(=O)N[C@H](Cc1ccc2ccccc2c1)C(=O)N[C@H](Cc1ccc2ccccc2c1)C(=O)N[C@H](Cc1ccc2ccccc2c1)C(=O)N[C@H](Cc1ccc2ccccc2c1)C(N)=O` [Ac-DNal(2’)-DNal(2’)-DNal(2’)-DNal(2’)-NH2] (Ac-[d2Nal][d2Nal][d2Nal][d2Nal]-NH2) the “solubility in solvents compatible with RP-HPLC” value [1] was “insoluble”.
For “miniAGRP(87–120): truncated agouti-related protein melanocortin receptor antagonist (CVRLHESCLGQQVPCCDPCATCYCRFFNAFCYCR; UniProt O00253 87-120, looked up, fragment)”, the “mMC3R pA2” value (mMC3R) is listed as 8.1±0.1 and the “mMC4R pA2” value (mMC4R) is listed as 8.5±0.1.
